Where a chain is given by its changes, count along the chain named.

This is an account of results in patent publication US20240287172A1 (SCIRHOM, published 2024).

This assay has as its target T1, hiR2-FL-E617D-T7 (human, UniProt Q6PJF5 1-856).
T1 sequence: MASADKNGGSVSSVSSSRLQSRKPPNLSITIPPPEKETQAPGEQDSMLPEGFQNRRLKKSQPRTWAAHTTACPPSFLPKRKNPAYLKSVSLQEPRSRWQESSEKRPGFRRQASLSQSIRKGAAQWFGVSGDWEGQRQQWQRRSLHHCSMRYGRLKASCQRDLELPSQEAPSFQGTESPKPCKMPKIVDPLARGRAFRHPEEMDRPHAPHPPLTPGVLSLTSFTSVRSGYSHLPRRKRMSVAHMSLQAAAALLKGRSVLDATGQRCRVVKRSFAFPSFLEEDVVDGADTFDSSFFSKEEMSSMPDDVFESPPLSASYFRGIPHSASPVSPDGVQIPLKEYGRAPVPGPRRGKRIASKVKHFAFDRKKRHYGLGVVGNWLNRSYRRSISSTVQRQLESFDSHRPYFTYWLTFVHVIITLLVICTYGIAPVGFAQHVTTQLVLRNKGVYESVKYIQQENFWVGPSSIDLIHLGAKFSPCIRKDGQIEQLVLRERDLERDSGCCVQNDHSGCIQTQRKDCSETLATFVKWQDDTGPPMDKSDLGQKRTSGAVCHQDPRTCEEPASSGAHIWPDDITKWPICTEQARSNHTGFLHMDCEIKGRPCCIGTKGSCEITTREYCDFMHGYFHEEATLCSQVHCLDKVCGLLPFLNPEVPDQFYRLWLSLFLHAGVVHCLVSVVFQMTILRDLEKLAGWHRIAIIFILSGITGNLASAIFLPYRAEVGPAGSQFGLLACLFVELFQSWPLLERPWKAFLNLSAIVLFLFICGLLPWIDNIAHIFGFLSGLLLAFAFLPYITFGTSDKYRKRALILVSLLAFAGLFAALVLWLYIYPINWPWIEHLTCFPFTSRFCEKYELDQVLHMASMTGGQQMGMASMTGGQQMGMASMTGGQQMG
As to the kind of experiment: FACS, MEF-DKO cells, 3 µg/ml. The gist of the method:
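MEF-DKO cells expressing T7-tagged full-length hiR2 point mutants were stained on ice for 1 h with purified antibodies at 3 μg/ml in FACS buffer. Detection used PE-conjugated goat anti-mouse IgG F(ab′)2 (1:100, 1 h on ice), read by flow cytometry; buffer-only wells served as controls.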

B1: antibody 48 (antibody, V domains shown)
VH: QVQLQQSGTELVRPGTSVKVSCKASGYAFTNYLIEWVKQRPGQGLEWIGVINPGSGFTKYNEKFKGKATLTADKSSSTVYMHLSSLTSEDSAVYFCARGLYRAMDYWGQGTSVTVSS
VL: DIQMTQSPASQSASLGESVTITCLASQTIATWLAWYQQKPGKSPQLLIYGATTLADGVPSRFSGGGSGTKFSFKISSLQAEDFVSYYCQQLYSTPYTFGGGTKLEIK
notes: mouse IgG, kappa light chain; also called clone #48; purified antibody 48
As to B1, the “loss of binding vs wild type” value is ≥ 30%.

B2: antibody 50 (antibody, V domains shown)
VH: B1 VH with T9A, T16A, T30S, V79A, H82Q
VL: B1 VL with A30G, G50A, T52A, T53S, S85N, L91I
notes: mouse IgG, kappa light chain; also called clone #50; purified antibody 50
Turning to B2, the “loss of binding vs wild type” value is ≥ 30%.
